# In patent publication US20130136748A1 (Ablynx, published 2013):
# Changes are numbered by the printed parent chain. Numbers in names are those of the source. Where “and” joins values, the source holds several entries; their conditions need not be identical. Equal values may be shown once. Read-outs that look alike come from different tables or passages of the source.
# T1: cHER3ECD (Maccaca fascicularis HER3 extracellular domain) (Macaca fascicularis, UniProt P21860 20-643 (human entry))
# T1 construct: also called cyno HER3ECD; cyno HER3-ECD
# T1 chain: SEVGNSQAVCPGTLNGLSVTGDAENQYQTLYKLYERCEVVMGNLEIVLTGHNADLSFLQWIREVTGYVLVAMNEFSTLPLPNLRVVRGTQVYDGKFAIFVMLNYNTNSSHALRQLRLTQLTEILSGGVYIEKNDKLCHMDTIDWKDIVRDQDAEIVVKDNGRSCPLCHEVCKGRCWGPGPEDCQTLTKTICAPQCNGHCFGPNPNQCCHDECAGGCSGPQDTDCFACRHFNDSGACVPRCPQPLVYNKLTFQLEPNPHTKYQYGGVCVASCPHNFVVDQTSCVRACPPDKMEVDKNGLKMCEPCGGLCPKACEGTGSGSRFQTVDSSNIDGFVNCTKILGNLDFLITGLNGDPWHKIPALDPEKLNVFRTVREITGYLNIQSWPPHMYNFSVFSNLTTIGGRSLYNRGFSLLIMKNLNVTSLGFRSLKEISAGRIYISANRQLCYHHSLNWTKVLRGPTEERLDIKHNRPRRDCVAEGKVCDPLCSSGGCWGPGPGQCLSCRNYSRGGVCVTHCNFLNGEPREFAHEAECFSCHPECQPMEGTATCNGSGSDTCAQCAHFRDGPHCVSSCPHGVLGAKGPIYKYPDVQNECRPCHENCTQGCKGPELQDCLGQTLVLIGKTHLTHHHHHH
# B1: 17B05 (VHH)
# VHH: EVQLVESGGGLVQPGGSLRLSCAASGSIGGLNAMAWYRQAPGKERELVAGIFGVGSTRYADSVKGRFTISRDIAKNTVFLQMNSLNSEDTAVYYCRMSSVTRGSSDYWGQGTQVTVSS
# notes: also called HER3MS17B05; HER3MS017B05
# B2: HER3MS00119 (VHH)
# VHH: B1 VHH with I73N, A74S, F79Y, N86R, S87P, Q113L
# notes: 17B05 second round, S84P (final variant); also called HER3MS0119
# B3: HER3MS00121 (VHH)
# VHH: B1 VHH with E1D, I73N, A74S, F79Y, N86R, S87P, Q113L
# notes: 17B05 second round, E1D, S84P (final variant for N-terminal use); also called HER3MS0121
# B4: HER3MS00118 (VHH)
# VHH: B1 VHH with I73N, A74S, F79Y, N86R, S87A, Q113L
# notes: 17B05 second round, S84A; also called HER3MS0118
# B5: HER3MS00120 (VHH)
# VHH: B1 VHH with E1D, I73N, A74S, F79Y, N86R, S87A, Q113L
# notes: 17B05 second round, E1D, S84A; also called HER3MS0120
# B6: HER3MS00123 (VHH)
# VHH: EVQLVESGGGLVQPGGSLRLSCAASGSIFRINAMAWYRQAPGKQRELVAEITAGGSTNYADSVKGRFTISRDNSWNTLYLQMNSLRPEDTAVYYCNLDHYTTWDRRSAYWGQGTLVTVSS
# B7: HER3MS00124 (VHH)
# VHH: B6 VHH with P87A
# B8: HER3MS00127 (VHH)
# VHH: B6 VHH with E1D
# B9: HER3MS00128 (VHH)
# VHH: B6 VHH with E1D, P87A
# What was measured:
# human HER1 [1] = target: T2, human HER1 (human, UniProt P00533 25-1210); assay: FACS CHO-HER1, 5 µg/ml
# T2 construct: also called EGFR; ErbB1
# human HER2 [2] = target: T3, human HER2 (human, UniProt P04626 23-1255); assay: FACS CHO-HER2, 5 µg/ml
# T3 construct: also called hHER2
# human HER4 [3] = target: T4, human HER4 (human, UniProt Q15303 26-1308); assay: FACS CHO-HER4, 5 µg/ml
# T4 sequence (Q15303 26-1308 limits assumed): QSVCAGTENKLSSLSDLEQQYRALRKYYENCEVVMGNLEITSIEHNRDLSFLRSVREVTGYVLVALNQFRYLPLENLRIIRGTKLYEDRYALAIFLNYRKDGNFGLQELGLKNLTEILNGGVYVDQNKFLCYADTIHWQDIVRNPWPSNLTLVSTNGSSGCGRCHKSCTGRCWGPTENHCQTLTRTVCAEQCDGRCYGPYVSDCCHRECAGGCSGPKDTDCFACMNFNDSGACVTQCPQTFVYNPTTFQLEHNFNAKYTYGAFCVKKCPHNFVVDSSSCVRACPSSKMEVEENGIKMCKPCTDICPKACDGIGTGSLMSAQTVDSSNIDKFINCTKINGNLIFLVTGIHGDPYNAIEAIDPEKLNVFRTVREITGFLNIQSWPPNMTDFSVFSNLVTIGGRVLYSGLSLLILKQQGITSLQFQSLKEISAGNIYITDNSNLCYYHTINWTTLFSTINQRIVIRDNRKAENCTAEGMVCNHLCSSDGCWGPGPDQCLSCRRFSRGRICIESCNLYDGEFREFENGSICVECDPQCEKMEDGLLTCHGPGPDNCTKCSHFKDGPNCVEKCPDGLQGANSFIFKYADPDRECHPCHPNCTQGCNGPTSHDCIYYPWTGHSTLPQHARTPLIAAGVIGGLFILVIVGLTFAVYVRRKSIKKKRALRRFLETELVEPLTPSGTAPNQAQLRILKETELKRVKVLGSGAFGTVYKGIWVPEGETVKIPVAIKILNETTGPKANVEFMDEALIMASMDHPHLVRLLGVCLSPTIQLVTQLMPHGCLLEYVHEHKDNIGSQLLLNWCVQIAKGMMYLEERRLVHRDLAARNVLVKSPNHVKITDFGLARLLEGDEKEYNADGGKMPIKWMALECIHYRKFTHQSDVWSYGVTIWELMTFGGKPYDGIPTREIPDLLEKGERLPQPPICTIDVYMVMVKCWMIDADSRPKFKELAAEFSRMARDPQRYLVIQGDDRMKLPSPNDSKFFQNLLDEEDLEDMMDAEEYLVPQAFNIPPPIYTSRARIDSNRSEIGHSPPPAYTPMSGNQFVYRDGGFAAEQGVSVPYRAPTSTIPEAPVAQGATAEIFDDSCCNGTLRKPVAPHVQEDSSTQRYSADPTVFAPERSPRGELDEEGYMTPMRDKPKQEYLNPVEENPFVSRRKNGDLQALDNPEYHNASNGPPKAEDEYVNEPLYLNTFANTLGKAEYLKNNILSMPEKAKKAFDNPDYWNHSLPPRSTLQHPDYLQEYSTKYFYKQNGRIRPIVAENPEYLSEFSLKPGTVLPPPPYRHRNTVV
# [4] = target: T5, hHER3 ECD (human HER3 extracellular domain) (human, UniProt P21860 20-643); assay: ELISA, coated hHER3-ECD
# T5 construct: also called recombinant HER3-ECD
# hHER3 full length [5] = target: T6, hHER3 full length (human, UniProt P21860 20-1342); assay: FACS, 400 nM, competitor 17C08-biotin
# T6 construct: On transfected CHO, CHO HER2/HER3, CHO EGFR/HER3 or CHO Flp-In cells; endogenous HER3 of MCF-7 and MDA-MB468 cells in the signalling assays; also called human HER3
# [6] = target: T5, hHER3 ECD (human HER3 extracellular …); assay: SPR off rate on HER3-ECD
# hHER3 full length [7] = target: T6, hHER3 full length; assay: cell-based or functional assay
# hHER3 full length [8] = target: T6, hHER3 full length; assay: FACS, 400 nM, competitor 21B02-biotin
# human HER1 [9] = target: T2, human HER1; assay: FACS CHO-HER1, 222 nM
# [10] = target: T5, hHER3 ECD (human HER3 extracellular …); assay: SPR off rate on HER3-ECD; remark: listed apart in the source
# human HER1 [11] = target: T2, human HER1; assay: FACS CHO-HER1, 2000 nM
# human HER2 [12] = target: T3, human HER2; assay: FACS CHO-HER2, 2000 nM
# hHER3 full length [13] = target: T6, hHER3 full length; assay: cell-based or functional assay; remark: listed apart in the source
# hHER3 full length [14] = target: T6, hHER3 full length; assay: cell-based or functional assay; remark: listed apart in the source
# human HER1 [15] = target: T2, human HER1; assay: FACS CHO-HER1, 667 nM
# human HER1 [16] = target: T2, human HER1; assay: FACS, CHO-HER1
# hHER3 full length [17] = target: T6, hHER3 full length; assay: FACS competition with HRG1-β1-EGF, CHO-HER3
# human HER2 [18] = target: T3, human HER2; assay: FACS CHO-HER2, 222 nM
# human HER4 [19] = target: T4, human HER4; assay: FACS CHO-HER4, 2000 nM
# [20] = target: T7, human HER3-Fc (R&D Systems, 348-RB) (human, UniProt P21860 20-643); assay: HRG competition alphascreen
# T7 construct: Bought; also called hHER3-Fc; Fc-HER3; Fc part of the bought chimera not given, not described
# hHER3 full length [21] = target: T6, hHER3 full length; assay: FACS, 400 nM, competitor 04C07-biotin
# human HER4 [22] = target: T4, human HER4; assay: FACS CHO-HER4, 667 nM
# hHER3 full length [23] = target: T6, hHER3 full length; assay: cell-based or functional assay; remark: listed apart in the source
# human HER4 [24] = target: T4, human HER4; assay: FACS, CHO-HER4
# [25] = target: T1, cHER3ECD (Maccaca fascicularis HER3 …); assay: ELISA, coated cHER3-ECD
# hHER3 full length [26] = target: T6, hHER3 full length; assay: FACS, 400 nM, competitor 23F05-biotin
# hHER3 full length [27] = target: T6, hHER3 full length; assay: FACS, 400 nM, competitor 18E08-biotin
# [28] = target: T7, human HER3-Fc (R&D Systems, 348-RB); assay: HRG competition alphascreen; remark: listed apart in the source
# [29] = target: T7, human HER3-Fc (R&D Systems, 348-RB); assay: HRG competition alphascreen; remark: listed apart in the source
# hHER3 full length [30] = target: T6, hHER3 full length; assay: FACS, 400 nM, competitor 04F10-biotin
# human HER4 [31] = target: T4, human HER4; assay: FACS CHO-HER4, 222 nM
# human HER2 [32] = target: T3, human HER2; assay: FACS CHO-HER2, 667 nM
# [33] = target: T7, human HER3-Fc (R&D Systems, 348-RB); assay: SPR, HER3-Fc captured by anti-Fc
# human HER2 [34] = target: T3, human HER2; assay: FACS, CHO-HER2
# [35] = target: T7, human HER3-Fc (R&D Systems, 348-RB); assay: 34C07 competition alphascreen
# hHER3 full length [36] = target: T6, hHER3 full length; assay: cell-based or functional assay; remark: listed apart in the source
# [37] = target: T5, hHER3 ECD (human HER3 extracellular …); assay: SPR off rate on HER3-ECD; remark: listed apart in the source
molecule,measurement,setting,value
Anti-HER2 pAb (R&D Systems AF1129) (antibody),MCF,human HER1 [1],323
same,MCF,human HER2 [2],41000
same,MCF,human HER4 [3],578
Anti-HER1 pAb (R&D Systems AF231) (antibody),MCF,human HER1 [1],28200
same,MCF,human HER2 [2],888
same,MCF,human HER4 [3],418
Anti-HER4 pAb (R&D Systems AF1131) (antibody),MCF,human HER1 [1],584
same,MCF,human HER2 [2],932
same,MCF,human HER4 [3],17000
B1,EC50,[4],0.63 nM
same,% competition,hHER3 full length [5],0%
same,koff,[6],0.00018 s⁻¹ and 0.0002 s⁻¹
same,"IC50, HRG1-β1 induced pAkt, MCF-7",hHER3 full length [7],7.83e-09 M
same,"IC50, HRG1-β1 induced pERK1/2, MCF-7",hHER3 full length [7],2.36e-09 M
same,% competition,hHER3 full length [8],0%
same,MCF,human HER1 [9],85
same,koff,[10],0.00018 s⁻¹ and 0.0002 s⁻¹
same,MCF,human HER1 [11],49
same,MCF,human HER2 [12],134
same,"IC50, EGF induced pHER3, CHO EGFR/HER3",hHER3 full length [13],3.43e-10 M
same,"IC50, TGFα induced pHER3, CHO EGFR/HER3",hHER3 full length [13],8.15e-10 M
same,"IC50, epiregulin induced pHER3, CHO EGFR/HER3",hHER3 full length [13],2.48e-10 M
same,"IC50 pHER3 blocking, HRG stimulated MCF7",hHER3 full length [14],4.52e-09 M
same,MCF,human HER1 [15],64
same,binding result,human HER1 [16],no binding (tested: 2000 nM)
same,IC50,hHER3 full length [17],33.4 nM
same,MCF,human HER2 [18],84
same,MCF,human HER4 [19],116
same,IC50,[20],0.78 nM
same,% competition,hHER3 full length [21],100%
same,MCF,human HER4 [22],90
same,"IC50, HRG1-β1 induced pHER3, MCF-7",hHER3 full length [23],5.34e-09 M
same,"IC50, HRG1-β1 induced pHER3, MDA-MB468",hHER3 full length [23],2.79e-08 M
same,binding result,human HER4 [24],no binding (tested: 2000 nM)
same,EC50,[25],0.66 nM
same,% competition,hHER3 full length [26],0%
same,% competition,hHER3 full length [27],0%
same,IC50,[28],0.34 nM and 0.93 nM
same,% inhibition,[29],87%
same,IC50,[29],0.755 nM
same,% competition,hHER3 full length [30],68%
same,MCF,human HER4 [31],142
same,MCF,human HER2 [32],86
same,Kd,[33],0.11 nM
same,kon,[33],390000 M⁻¹ s⁻¹
same,binding result,human HER2 [34],no binding (tested: 2000 nM)
B2,koff,[6],0.00018 s⁻¹
same,"IC50 pHER3 blocking, HRG stimulated MCF7",hHER3 full length [14],1.7e-09 M
same,IC50,[20],0.79 nM
B3,koff,[6],0.00018 s⁻¹
same,"IC50 pHER3 blocking, HRG stimulated MCF7",hHER3 full length [14],3.53e-09 M
same,IC50,[20],0.55 nM
B4,koff,[6],0.00018 s⁻¹
same,"IC50 pHER3 blocking, HRG stimulated MCF7",hHER3 full length [14],2.69e-09 M
same,IC50,[20],0.6 nM
B5,koff,[6],0.00019 s⁻¹
same,"IC50 pHER3 blocking, HRG stimulated MCF7",hHER3 full length [14],4.28e-09 M
same,IC50,[20],0.75 nM
B6,IC50,[35],7.6 nM
same,"IC50 pHER3 blocking, MCF7",hHER3 full length [36],3.09e-08 M
same,koff,[37],0.00046 s⁻¹
B7,IC50,[35],7.1 nM
same,"IC50 pHER3 blocking, MCF7",hHER3 full length [36],3.05e-08 M
same,koff,[37],0.00045 s⁻¹
B8,IC50,[35],8.5 nM
same,"IC50 pHER3 blocking, MCF7",hHER3 full length [36],3.88e-08 M
same,koff,[37],0.00046 s⁻¹
B9,IC50,[35],6.7 nM
same,"IC50 pHER3 blocking, MCF7",hHER3 full length [36],4.05e-08 M
same,koff,[37],0.00046 s⁻¹
